Like-named read-outs stand apart in the source and are kept apart here.
How the values were obtained:
[1] = test system: peripheral blood white cells
Method: (§1) Groups of C57BL/6 mice (8 weeks of age) were treated as described in FIG. 14. FIG. 4A is a bar graph of the bone marrow cell count from mice treated for 16 days with either buffer alone (PBS, 100 μl/mouse/day s.c), Vaso (300 μg/mouse/day s.c) alone, Cytoxan (500 μg/mouse/day i.p.) alone, or vaso (300 μg/mouse/day s.c) plus Cytoxan (500 μg/mouse/day i.p.). Bone marrow was harvested on days 9 and 17 and the number of nucleated cells were counted. FIG. 4B is a bar graph of the bone marrow cell count from mice treated with for 11 days with either buffer alone (PBS, 100 μl/mouse/day s.c), Vaso (300 μg/mouse/day s.c) alone, Cytoxan (250 μg/mouse/day i.p.)×11 days plus Cytoxan 2 mg/mouse i.p. on day 11, or Cytoxan (250 μg/mouse/day i.p.)×11 days plus Cytoxan 2 mg/mouse i.p. on day 11 plus Vaso (300 μg/mouse/day s.c, days 1-16). Bone marrow cell counts were obtained on day 17. FIG. 4C is a bar graph of peripheral blood white cells counts (WBC) on day 17 from mice from the same treatment groups described in B.
FIG. 14 is a schematic diagram of different treatment groups used in the studies described herein. • Group 1: Buffer alone (100 μl/mouse/day s.c)×16 days • Group 2: Vaso alone (300 μg/mouse/day s.c)×16 days • Group 3: Cyclophosphamide (500 μg/mouse/day i.p.)×16 days Group 4: Cyclophosphamide (500 μg/mouse/day i.p.)×16 days plus vaso (300 μg/mouse/day s.c)×16 days Group 5: Cyclophosphamide (250 μg/mouse/day i.p.)×11 days plus Cyclophosphamide 2 mg/mouse i.p. on day 11 Group 6: Cyclophosphamide (250 μg/mouse/day i.p.)×11 days plus Cyclophosphamide 2 mg/mouse i.p. on day 11 plus vaso (300 μg/mouse/day s.c) days 1-16.
(§2) In addition, rather than treating the mice with vaso prior to toxin exposure as described above, mice were simultaneously inoculated with cyclophosphamide and vaso. Thus, groups of mice (n=6) received either buffer alone (100 μl s.c) daily for 16 days, vaso (300 μg/mouse s.c) alone daily for 16 days, cyclophosphamide (500 μg/mouse i.p.) either alone or together with vaso (300 μg/mouse s.c) for 16 days. Other groups of mice (n=6) were inoculated daily for 11 days with cyclophosphamide (250 μg/mouse i.p.) either alone or together with vaso (300 μg/mouse s.c).

[2] = test system: athymic BALB/c nu/nu mice
Method: (§3) Groups of 6-8 athymic BALB/c nu/nu mice, 6 weeks of age, were first irradiated with 400 rad, and 24 hr later were inoculated s.c. with 8×10^6 Burkitt lymphoma cells (CA46 cell line). Beginning 24 hr after cell inoculation, one group (n=6) of mice received daily s.c. inoculations of buffer alone (100 μl); a second group (n=6) received daily s.c. inoculations of a fusion protein of maltose binding protein and vasostatin, MBP-vaso, alone (200 μg in 100 μl of buffer); a third group (n=8) received daily s.c. inoculations of buffer alone (100 μl) plus cyclophosphamide once on day 9 post cell inoculation (2.6 mg i.p. in 100 μl of buffer); a fourth group (n=8) received daily s.c. inoculations of vaso (200 μg in 100 μl of buffer) plus cyclophosphamide once on day 9 post cell inoculation (2.6 mg i.p. in 100 μl of buffer); a fifth group received daily s.c. inoculations of buffer alone (100 μl) plus daily i.p. inoculations of cyclophosphamide (260 μg/mouse in 100 μl of buffer); and a sixth group received daily s.c. inoculations of vaso (200 μg/mouse in 100 μl of buffer) plus daily i.p. inoculations of cyclophosphamide (260 μg/mouse in 100 μl of buffer).

[3] = test system: femoral marrow hematopoietic cells
Method: as §3

bone marrow cells [4] = test system: bone marrow cells
Method: FIG. 2 is set of bar graphs showing of the effects of vaso on cytoxan-induced bone marrow toxicity evaluated by bone marrow cell counting. Bone marrow cells obtained from the femurs of mice treated with cytoxan alone or with vaso were counted. FIG. 2A is a bar graph of bone marrow cell counts 5 days after the injection of cytoxan (1 or 2 mg/mouse) alone or with vaso (300 μg/mouse/day). FIG. 2B is a bar graph of the bone marrow cell counts on days 3 and 5 after treatment with cytoxan (2 mg/mouse) alone or with vaso ([…]).
C57BL6J mice (7 weeks of age) were first treated for 7 days daily with either buffer (100 μl s.c.) or vaso (300 μg/mouse in 100 μl of buffer s.c.). On day 8, groups of mice (n=6) pretreated with either buffer or vaso were injected with cyclophosphamide (1.0 or 2.0 mg/mouse) and continued on daily inoculations of buffer (100 μl s.c.) or vaso (300 μg/mouse in 100 μl of buffer s.c.). Additional control mice were treated with only buffer or vaso for 5 additional days. On days 3 and 5 after cyclophosphamide injection, ½ of the mice were killed for evaluation of the bone marrow and peripheral blood.

bone marrow cells [5] = test system: bone marrow cells; remark: listed apart in the source
Method: as §1, with “([…]” for “(250 μg/mouse/day i.p.)×11 days plus Cytoxan 2 mg/mouse i.p. on day 11 plus Vaso (300 μg/mouse/day”, “B. […]” for “B.”
as §2

[6] = same dose and regimen of cyclophosphamide plus vaso

Molecule: O=P1(N(CCCl)CCCl)NCCCO1 (stereo not shown) [cyclophosphamide, reference compound]
- peripheral white blood cell counts on day 17 ([1]; cyclophosphamide 250 μg/mouse daily for 11 days then 2 mg/mouse on day 12, alone, vs untreated controls): reduction in white blood cell counts
- average percent neutrophils on day 17 ([1]; cyclophosphamide 250 μg/mouse daily for 11 days then 2 mg/mouse on day 12, alone, controls 10-17%): 13.4%
- average percent lymphocytes on day 17 ([1]; cyclophosphamide 250 μg/mouse daily for 11 days then 2 mg/mouse on day 12, alone, controls 72-83%): 62%
- mice alive on day 28 ([2]; cyclophosphamide 260 μg/mouse i.p. daily for 26 days, alone): 8/8
- mice alive on day 26 ([2]; cyclophosphamide 2.6 mg i.p. once on day 9 alone (daily buffer s.c.), 400 rad, CA46-inoculated, n=8): 0/8
- mice dead on day 13 ([2]; cyclophosphamide 2.6 mg i.p. once on day 9 alone, n=8): 7 out of 8
- histological appearance of femoral marrow ([3]; cyclophosphamide only (260 μg/day, 26 days)): hypocellular and virtually depleted of hematopoietic cells
- bone marrow cellularity 5 days after cyclophosphamide (bone marrow cells [4]; cyclophosphamide 2 mg/mouse alone, vs control untreated mice): clear reduction in cellularity
- marrow cell counts 5 days after cyclophosphamide (bone marrow cells [4]; cyclophosphamide 1.0 or 2.0 mg/mouse, alone): reduced significantly marrow cell counts
- bone marrow cell counts on day 17 (bone marrow cells [5]; cyclophosphamide 250 μg/mouse daily for 11 days then single 2 mg/mouse injection on day 12, alone): considerable reduction of bone marrow cell counts
- bone marrow cell counts on day 9 (bone marrow cells [5]; cytoxan 500 μg/mouse/day i.p. alone, vs PBS controls): did not reduce bone marrow cell counts on day 9
- bone marrow cell counts on day 17 (bone marrow cells [5]; cytoxan 500 μg/mouse/day i.p. for 16 days alone, vs PBS controls): reduced them on day 17

B1: vaso: N-terminal domain of calreticulin (amino acids 1-180, SEQ ID NO:3); given as fusion protein with maltose binding protein, MBP-vaso (protein)
chain: EPAVYFKEQFLDGDGWTSRWIESKHKSDFGKFVLSSGKFYGDEEKDKGLQTSQDARFYALSASFEPFSNKGQTLVVQFTVKHEQNIDCGGGYVKLFPNSLDQTDMHGDSEYNIMFGPDICGPGTKKVHVIFNYKGKNVLINKDIRCKDDEFTHLYTLIVRPDNTYEVKIDNSQVESGSLE
modifications: Vasostatin
- average percent lymphocytes on day 17 [1, 6]: 25%
- average percent neutrophils on day 17 [1, 6]: 63%
- white blood cells in the circulation on day 17 ([1]; vaso in conjunction with cyclophosphamide 250 μg/mouse daily for 11 days then 2 mg/mouse): significantly greater number of white blood cells
- mice alive on day 28 ([2]; cyclophosphamide 260 μg/mouse i.p. daily in conjunction with vasostatin 200 μg/mouse s.c. daily): 8/8
- gross and microscopic examination of liver, spleen, kidneys, heart, lung, lymph nodes and bone marrow ([2]; surviving mice, high dose cyclophosphamide plus vaso, day 26): No abnormalities were noted
- mice alive and well on day 26 ([2]; vaso 200 μg s.c. daily plus cyclophosphamide 2.6 mg i.p. once on day 9, n=8, p<0.0001 vs cyclophosphamide alone): 8/8
- mice alive and well on day 28 ([2]; vasostatin alone 200 μg s.c. daily): 6/6
- histological appearance of femoral marrow ([3]; cyclophosphamide 260 μg/day plus vasostatin 200 μg/day, 26 days): indistinguishable from a normal control marrow
- bone marrow cellularity 5 days after cyclophosphamide (bone marrow cells [4]; cyclophosphamide 2 mg/mouse in conjunction with vasostatin): indistinguishable from that of control mice
- nadir in bone marrow counts on day 3 after cyclophosphamide (bone marrow cells [4]; cyclophosphamide 2 mg/mouse with vaso 300 μg/mouse/day): reduced the severity of this nadir
- bone marrow cell counts 5 days after cyclophosphamide (bone marrow cells [4]; cyclophosphamide 1.0 or 2.0 mg/mouse together with vaso 300 μg/mouse/day s.c.): the reduction in bone marrow cell counts was minimal
- bone marrow cell counts on day 17 (bone marrow cells [5]; Vaso 300 μg/mouse/day s.c. for 16 days with cyclophosphamide 250 μg/mouse daily for 11 days then 2 mg/mouse on day 12): prevented the occurrence of a reduction in bone marrow cell counts
- bone marrow cell count on days 9 and 17 (bone marrow cells [5]; cyclophosphamide 500 μg/mouse/day i.p. plus vasostatin 300 μg/mouse/day s.c.): higher than in the control mice and in the mice treated with cytoxan

Reference: US7812117B2, “Vasostatin as marrow protectant” (The United States of America as represented by the …, priority 1998, dated 2010)
